Test results from paper PMC6224480, “Insights into Kinesin-1 Activation from the Crystal Structure of KLC2 Bound to JIP3” (Structure(London, England:1993), 2018).
*: point of attachment. FITC = O=C1OC2(c3ccc(O)cc3Oc3cc(O)ccc32)c2ccc(NC(=S)*)cc21

Experiments:
Details in all cases: both partners purified
KLC2^TPR-myc (wild type) [1] = target: T1, KLC2^TPR-myc (wild type) (murine, UniProt O88448 190-479); test: fluorescence polarisation; competition: FITC-LFP peptide (300 nM) and KLC2^TPR-myc fixed at 21 μM, 2-fold serial dilutions of unlabelled CSTN-WD1 peptide or Trp-JIP3^LZ; 0.1 M NaCl, 25 mM HEPES, 5 mM MgCl2, 1 mM TCEP, pH 7.5; competitive inhibition model
T1 construct: kinesin light chain 2 (KLC2), murine, TPR domain, residues 191-480; also called KLC2^TPR-myc protein; source: E. coli BL21(DE3) Rosetta, purified (His-trap, ULP1 cleavage, SEC); not shown: His6-SUMO, N-terminal, cleaved
T1 sequence (O88448 190-479): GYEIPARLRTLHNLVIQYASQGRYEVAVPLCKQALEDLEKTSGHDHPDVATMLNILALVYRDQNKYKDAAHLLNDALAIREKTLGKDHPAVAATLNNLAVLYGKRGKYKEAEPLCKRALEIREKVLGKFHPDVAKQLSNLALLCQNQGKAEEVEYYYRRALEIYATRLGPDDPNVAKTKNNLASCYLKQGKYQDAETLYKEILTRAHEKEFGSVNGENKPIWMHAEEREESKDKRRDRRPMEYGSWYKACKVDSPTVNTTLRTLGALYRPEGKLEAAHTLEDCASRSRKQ

[2] = target: KLC2^TPR-myc third TPR1 mutant, printed as L220Y in Table S2 (mouse, UniProt O88448 191-480); test: ITC; FITC-CSTN-WD2 peptide as titrant (380 uM) into wild-type or mutant KLC2^TPR-myc (44-50 uM) in the cell; 25 C; 0.1 M NaCl, 25 mM HEPES, 1 mM TCEP, pH 7.5; 2-3 experiments globally fitted with the model A + B -> AB; apparent stoichiometry Napp
KLC2^TPR-myc third TPR1 mutant, printed as L220Y in Table S2, sequence (O88448 other isoform, or with tags, fused parts or gaps L220Y): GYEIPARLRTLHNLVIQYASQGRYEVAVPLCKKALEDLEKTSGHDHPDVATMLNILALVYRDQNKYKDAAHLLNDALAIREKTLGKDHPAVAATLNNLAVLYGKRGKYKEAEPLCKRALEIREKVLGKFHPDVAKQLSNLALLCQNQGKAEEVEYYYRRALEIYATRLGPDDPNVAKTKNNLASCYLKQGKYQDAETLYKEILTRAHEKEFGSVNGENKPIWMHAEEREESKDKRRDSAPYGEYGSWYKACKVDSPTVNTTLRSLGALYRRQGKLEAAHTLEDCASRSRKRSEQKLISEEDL

KLC2^TPR-myc (wild type) [3] = target: T1, KLC2^TPR-myc (wild type); test: ITC; wild-type or mutant KLC2^TPR-myc (44-50 μM) in the cell; Trp-JIP3^LZ (dimer 297-330 μM) or FITC-CSTN-WD2 peptide (380 μM) as titrant; 0.1 M NaCl, 25 mM HEPES, 1 mM TCEP, pH 7.5
[4] = target: T2, KLC2^TPR-myc Thr^200Asp mutant (murine, UniProt O88448 190-479, Thr^200Asp); test: as above
T2 construct: kinesin light chain 2 (KLC2), murine, TPR domain, residues 191-480; source: E. coli BL21(DE3) Rosetta, purified (His-trap, ULP1 cleavage, SEC); not shown: His6-SUMO, N-terminal, cleaved
T2 sequence (O88448 other isoform, or with tags, fused parts or gaps Thr^200Asp | Thr^200Asp | mutant): as the sequence (O88448 190-479) above, with T10D counted along it

[5] = target: T3, KLC2^TPR-myc Tyr^208Ala mutant (murine, UniProt O88448 190-479, Tyr^208Ala); test: as above
T3 construct: kinesin light chain 2 (KLC2), murine, TPR domain, residues 191-480; source: E. coli BL21(DE3) Rosetta, purified (His-trap, ULP1 cleavage, SEC); not shown: His6-SUMO, N-terminal, cleaved
T3 sequence (O88448 other isoform, or with tags, fused parts or gaps Tyr^208Ala | Tyr^208Ala | mutant): as the sequence (O88448 190-479) above, with Y18A counted along it

[6] = target: T4, KLC2^TPR-myc Gln^223Lys mutant (murine, UniProt O88448 190-479, Gln^223Lys); test: as above
T4 construct: kinesin light chain 2 (KLC2), murine, TPR domain, residues 191-480; source: E. coli BL21(DE3) Rosetta, purified (His-trap, ULP1 cleavage, SEC); not shown: His6-SUMO, N-terminal, cleaved
T4 sequence (O88448 other isoform, or with tags, fused parts or gaps Gln^223Lys | Gln^223Lys | mutant): as the sequence (O88448 190-479) above, with Q33K counted along it

KLC2^TPR-myc (wild type) [7] = target: T1, KLC2^TPR-myc (wild type); test: fluorescence polarisation; FITC-LFP peptide (300 nM) with 2-fold dilutions of KLC2^TPR-myc; 0.1 M NaCl, 25 mM HEPES, 5 mM MgCl2, 1 mM TCEP, pH 7.5; 1 hour, room temperature; fluorescence anisotropy

B1: N-terminally acetylated CSTN-WD1 peptide (Ac-GKENEMDWDDSALTITVN-COOH) (peptide)
peptide: Ac-GKENEMDWDDSALTITVN-OH
notes: tryptophan-acidic motif WD1 of calsyntenin-1; also called calsyntenin-1 peptide; tryptophan-acidic peptide; source: synthetic peptide (Peptide Synthesis Laboratory, Francis Crick Institute, UK)
Ki (KLC2^TPR-myc (wild type) [1]): 11.3 µM

B2: FITC-labeled CSTN(WD2) peptide (FITC-TRQLEWDDSTL-COOH) (peptide)
peptide: {FITC}-TRQLEWDDSTL-OH
notes: tryptophan-acidic peptide (WD2 motif) derived from calsyntenin-1; also called FITC-CSTN-WD2 peptide; source: synthetic peptide; bought: Biomatik
Ka [2]: 739000 M⁻¹ | stoichiometry N [2]: 0.71

B3: FITC-labeled CSTN(WD2) peptide (FITC-TRQLEWDDSTL-COOH) (peptide)
peptide: {FITC}-TRQLEWDDSTL-OH
notes: tryptophan-acidic motif WD2 of calsyntenin-1; also called FITC-CSTN-WD2 peptide; tryptophan-acidic cargo peptide; source: synthetic peptide, bought: Biomatik
stoichiometry N (KLC2^TPR-myc (wild type) [3]): ~0.7 | stoichiometry N [4]: ~0.7 | stoichiometry N [5]: ~0.7 | stoichiometry N [6]: ~0.7

B4: FITC-labeled KLC2 LFP motif peptide (FITC-DSLDDLFPNEDEQS-COOH) (peptide)
peptide: {FITC}-DSLDDLFPNEDEQS-OH
notes: LFP motif (KLC2 residues 167-169) of the acidic linker of kinesin light chain 2; also called FITC-LFP peptide; FITC-labelled LFP-motif peptide; source: synthetic peptide, bought: Biomatik
Kd (KLC2^TPR-myc (wild type) [7]): 37 µM
